Measurements as given in patent US20230312755A1.

Columns and labels:
human Sclerostin (human) [1] = molecular target: human Sclerostin (human) (UniProt Q9BQB4); experiment: cell-based or functional assay
[2] = molecular target: His-tagged human Sclerostin (NCBI reference No. NP_079513.1) (human) (UniProt Q9BQB4); experiment: ELISA, plate coated with His-tagged human Sclerostin
human Sclerostin (human) [3] = molecular target: human Sclerostin (human) (UniProt Q9BQB4); experiment: BLI (Gator), antibody on anti-hFc biosensor, Sclerostin as analyte, 1:1 global fit

Sequence of human Sclerostin (human) (Q9BQB4 24-213 limits assumed): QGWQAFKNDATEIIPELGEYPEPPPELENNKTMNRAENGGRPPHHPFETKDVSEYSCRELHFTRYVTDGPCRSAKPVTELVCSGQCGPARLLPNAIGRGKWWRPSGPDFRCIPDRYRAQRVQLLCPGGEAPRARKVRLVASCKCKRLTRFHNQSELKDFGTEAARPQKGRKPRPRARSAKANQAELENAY
Sequence of His-tagged human Sclerostin (NCBI reference No. NP_079513.1) (human) (Q9BQB4 24-213 limits assumed): as above

EC50, Sclerostin-neutralisation activity in HEK293/TCF/LEF/Wnt1 cells (luciferase reporter) (human Sclerostin (human) [1]): 42300 pM
EC50 [2]: 110 pM
Kd (human Sclerostin (human) [3]): 780 pM
koff (human Sclerostin (human) [3]): 0.00028 s⁻¹
kon (human Sclerostin (human) [3]): 360000 M⁻¹ s⁻¹
B1: Romosozumab (antibody, INN chains, looked up, V domains shown)
VH: EVQLVQSGAEVKKPGASVKVSCKASGYTFTDYNMHWVRQAPGQGLEWMGEINPNSGGAGYNQKFKGRVTMTTDTSTSTAYMELRSLRSDDTAVYYCARLGYDDIYDDWYFDVWGQGTTVTVSS
VL: DIQMTQSPSSLSASVGDRVTITCRASQDISNYLNWYQQKPGKAPKLLIYYTSRLLSGVPSRFSGSGSGTDFTLTISSLQPEDFATYYCQQGDTLPYTFGGGTKVEIK
